Blank lines part the entries; values can stand above or below the binder they belong to.
Key:
FLAG-MBP-WT human TRPA1 = FLAG-MBP-WT human TRPA1 (human, UniProt O75762 1-1119); experiment: pull-down + co-IP
[1] = target: 3xFLAG-tagged WT human TRPA1 (human, UniProt O75762 1-1119); experiment: co-IP + SEC
SEC = target: the molecule itself; experiment: SEC

stoichiometry N (FLAG-MBP-WT human TRPA1): 1.3 R919* subunits per WT subunit
B1: Strep-MBP-R919* human TRPA1 (domain or fragment, UniProt O75762 1-918, looked up)
chain: MKRSLRKMWRPGEKKEPQGVVYEDVPDDTEDFKESLKVVFEGSAYGLQNFNKQKKLKRCDDMDTFFLHYAAAEGQIELMEKITRDSSLEVLHEMDDYGNTPLHCAVEKNQIESVKFLLSRGANPNLRNFNMMAPLHIAVQGMNNEVMKVLLEHRTIDVNLEGENGNTAVIIACTTNNSEALQILLKKGAKPCKSNKWGCFPIHQAAFSGSKECMEIILRFGEEHGYSRQLHINFMNNGKATPLHLAVQNGDLEMIKMCLDNGAQIDPVEKGRCTAIHFAATQGATEIVKLMISSYSGSVDIVNTTDGCHETMLHRASLFDHHELADYLISVGADINKIDSEGRSPLILATASASWNIVNLLLSKGAQVDIKDNFGRNFLHLTVQQPYGLKNLRPEFMQMQQIKELVMDEDNDGCTPLHYACRQGGPGSVNNLLGFNVSIHSKSKDKKSPLHFAASYGRINTCQRLLQDISDTRLLNEGDLHGMTPLHLAAKNGHDKVVQLLLKKGALFLSDHNGWTALHHASMGGYTQTMKVILDTNLKCTDRLDEDGNTALHFAAREGHAKAVALLLSHNADIVLNKQQASFLHLALHNKRKEVVLTIIRSKRWDECLKIFSHNSPGNKCPITEMIEYLPECMKVLLDFCMLHSTEDKSCRDYYIEYNFKYLQCPLEFTKKTPTQDVIYEPLTALNAMVQNNRIELLNHPVCKEYLLMKWLAYGFRAHMMNLGSYCLGLIPMTILVVNIKPGMAFNSTGIINETSDHSEILDTTNSYLIKTCMILVFLSSIFGYCKEAGQIFQQKRNYFMDISNVLEWIIYTTGIIFVLPLFVEIPAHLQWQCGAIAVYFYWMNFLLYLQRFENCGIFIVMLEVILKTLLRSTVVFIFLLLAFGLSFYILLNLQDPFSSPLLSIIQTFSMMLGDINY

stoichiometry N [1]: 4
B2: GFP-tagged WT human TRPA1 (natural protein, UniProt O75762 1-1119, looked up)
chain: MKRSLRKMWRPGEKKEPQGVVYEDVPDDTEDFKESLKVVFEGSAYGLQNFNKQKKLKRCDDMDTFFLHYAAAEGQIELMEKITRDSSLEVLHEMDDYGNTPLHCAVEKNQIESVKFLLSRGANPNLRNFNMMAPLHIAVQGMNNEVMKVLLEHRTIDVNLEGENGNTAVIIACTTNNSEALQILLKKGAKPCKSNKWGCFPIHQAAFSGSKECMEIILRFGEEHGYSRQLHINFMNNGKATPLHLAVQNGDLEMIKMCLDNGAQIDPVEKGRCTAIHFAATQGATEIVKLMISSYSGSVDIVNTTDGCHETMLHRASLFDHHELADYLISVGADINKIDSEGRSPLILATASASWNIVNLLLSKGAQVDIKDNFGRNFLHLTVQQPYGLKNLRPEFMQMQQIKELVMDEDNDGCTPLHYACRQGGPGSVNNLLGFNVSIHSKSKDKKSPLHFAASYGRINTCQRLLQDISDTRLLNEGDLHGMTPLHLAAKNGHDKVVQLLLKKGALFLSDHNGWTALHHASMGGYTQTMKVILDTNLKCTDRLDEDGNTALHFAAREGHAKAVALLLSHNADIVLNKQQASFLHLALHNKRKEVVLTIIRSKRWDECLKIFSHNSPGNKCPITEMIEYLPECMKVLLDFCMLHSTEDKSCRDYYIEYNFKYLQCPLEFTKKTPTQDVIYEPLTALNAMVQNNRIELLNHPVCKEYLLMKWLAYGFRAHMMNLGSYCLGLIPMTILVVNIKPGMAFNSTGIINETSDHSEILDTTNSYLIKTCMILVFLSSIFGYCKEAGQIFQQKRNYFMDISNVLEWIIYTTGIIFVLPLFVEIPAHLQWQCGAIAVYFYWMNFLLYLQRFENCGIFIVMLEVILKTLLRSTVVFIFLLLAFGLSFYILLNLQDPFSSPLLSIIQTFSMMLGDINYRESFLEPYLRNELAHPVLSFAQLVSFTIFVPIVLMNLLIGLAVGDIAEVQKHASLKRIAMQVELHTSLEKKLPLWFLRKVDQKSTIVYPNKPRSGGMLFHIFCFLFCTGEIRQEIPNADKSLEMEILKQKYRLKDLTFLLEKQHELIKLIIQKMEIISETEDDDSHCSFQDRFKKEQMEQRNSRWNTVLRAVKAKTHHLEP
stoichiometry N (SEC): 4

Reference: doi:10.1101/2022.01.05.475133 (bioRxiv, 2022)
